Legend:
[1] = target: IgG; assay: fluorescence titration spectroscopy
[2] = target: IgG; assay: steady-state fluorescence titration (quenching of TRIM21 tryptophan fluorescence on titration of IgG)
[3] = target: ΔRING-ΔBOX TRIM21 (human) (UniProt P19474); assay: steady-state fluorescence titration: quenching of intrinsic TRIM21 tryptophan fluorescence on titration of IgG
[4] = target: recombinant full-length TRIM21 (human) (UniProt P19474); assay: as above

Kd [1]	Kd [2]	EC50 (read off the curve) [3]	EC50 (read off the curve) [4]	Substance
< 1 nM	0.9 nM	–	–	ΔRING-ΔBOX TRIM21 (from UniProt P19474 129-475) (receptor)
–	–	3 nM	1 nM	IgG (antibody)
< 1 nM	0.6 nM	–	–	recombinant full-length TRIM21 (from UniProt P19474 1-475) (receptor)
